Results from patent publication US20030113320A1 (BURNHAM INSTITUTE, published 2003).
Where no end group is shown, it is not given here.

B1: CNGRC cyclic peptide (SEQ ID NO:8) (peptide)
peptide: CNGRC
modifications: also: cyclized (cyclic peptide), ring type not given here
notes: also called NGR cyclic peptide; soluble CNGRC peptide
B2: CARAC peptide (SEQ ID NO:221) (peptide)
peptide: CARAC
notes: also called negative control CARAC; control peptide

Assays:
[1] = target: T1, CD13/aminopeptidase N (CD13/APN), isolated from octylglucoside cell extracts (Homo sapiens (Human), UniProt P15144 2-967); test: affinity chromatography of Molt-4/CD13, MDA-MB-435/CD13 or HL-60 cell extracts on CNGRC-SEPHAROSE
T1 construct: The source cell lines are human; also called NGR receptor; immuno-isolated CD13
Description: (§1) To further characterize the interaction of CD13/APN with the NGR peptide, affinity chromatography on the CNGRC peptide was performed. The column was prepared by coupling the CNGRC peptide to SEPHAROSE (Pharmacia; Piscataway N.J.). Elution was effected with soluble CNGRC peptide. Experiments were performed using HL-60 cell extracts because they are known to express CD13/APN without other proteases that could interfere in the APN assay (Xu et al., supra (1997)). Thus, in HL-60 cell extracts, all detectable cell surface enzymatic activity is inhibitable by anti-CD13 blocking antibodies, assuring specificity. Extracts of Molt-4 and MDA-MB-435 cells transfected with CD13/APN were also characterized by using affinity chromatography, with extracts of the mock transfected counterparts used as negative controls.
(§2) Briefly, CD13 was detected by testing aliquots of each fraction for the presence of CD13 immunoreactivity in ELISA with the anti-CD13 monoclonal antibody WM15, using normal mouse IgG as a negative control. The fractions were also analyzed for CD13 enzymatic activity using AlapNA as the substrate. […] Furthermore, no CD13 activity was recovered from the CNGRC column when the extract fractionated was derived from CD13-negative cells (see FIG. 6).

[2] = target: T2, CD13/aminopeptidase N on CD13-transfected cells (Molt-4/CD13, MDA-MB-435/CD13) (Homo sapiens (Human), UniProt P15144 2-967); test: competition with CNGRC phage on CD13-transfected cells; peptide at 250 and 500 ug/ml
T2 construct: The parental lines express no endogenous CD13; The transfected construct is not described; also called CD13/APN
Description: The CNGRC phage binds specifically to cells transfected with CD13. […] Briefly, mock transfected Molt-4 cells (“Molt-4/mock”) and cells transfected with CD13 (“Molt-4/CD13”) were incubated with CNGRC (SEQ ID NO:8) phage or with control Fd phage lacking an insert (2× 10^9 transducing units (TU) per sample). […] After extensive washing, bound phage were quantitated by infection of bacteria as described above.

[3] = target: T1, CD13/aminopeptidase N (CD13/APN), …; test: peptide affinity chromatography of cell extracts
Description: as §1, §2

T1 sequence (P15144 2-967 R86Q limits assumed): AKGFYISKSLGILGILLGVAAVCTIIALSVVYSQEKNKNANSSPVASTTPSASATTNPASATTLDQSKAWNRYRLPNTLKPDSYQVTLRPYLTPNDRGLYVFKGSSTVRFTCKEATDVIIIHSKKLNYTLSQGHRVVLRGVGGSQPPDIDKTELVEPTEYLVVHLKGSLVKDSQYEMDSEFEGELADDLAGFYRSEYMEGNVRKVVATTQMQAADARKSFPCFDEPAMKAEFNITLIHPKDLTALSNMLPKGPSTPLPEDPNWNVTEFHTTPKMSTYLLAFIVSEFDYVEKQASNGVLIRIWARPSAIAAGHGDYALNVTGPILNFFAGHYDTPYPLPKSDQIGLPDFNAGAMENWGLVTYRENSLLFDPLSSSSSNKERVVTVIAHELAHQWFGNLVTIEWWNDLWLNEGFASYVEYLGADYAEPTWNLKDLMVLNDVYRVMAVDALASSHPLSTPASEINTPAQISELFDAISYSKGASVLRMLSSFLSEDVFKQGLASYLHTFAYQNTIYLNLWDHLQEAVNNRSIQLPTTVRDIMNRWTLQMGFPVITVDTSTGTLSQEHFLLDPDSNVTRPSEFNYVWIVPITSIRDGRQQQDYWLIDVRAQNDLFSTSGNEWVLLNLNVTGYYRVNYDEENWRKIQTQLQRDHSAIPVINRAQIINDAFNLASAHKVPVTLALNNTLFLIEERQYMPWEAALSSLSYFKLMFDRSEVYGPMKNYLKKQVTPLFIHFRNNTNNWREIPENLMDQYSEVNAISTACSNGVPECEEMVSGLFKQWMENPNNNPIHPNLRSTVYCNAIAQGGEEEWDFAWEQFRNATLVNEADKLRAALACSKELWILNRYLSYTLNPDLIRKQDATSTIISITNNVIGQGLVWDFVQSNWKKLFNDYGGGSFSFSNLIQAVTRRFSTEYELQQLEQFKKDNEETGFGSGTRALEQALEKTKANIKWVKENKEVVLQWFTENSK
T2 sequence (P15144 2-967 R86Q limits assumed): as above

Binder | binding result [1] | binding result [2] | binding result [3]
B1 | binds | binds | 
B2 |  |  | no binding
